What was measured:
Human BCMA (human) = Human BCMA (human) (UniProt Q02223); assay: SPR, IgG on chip, huBCMA analyte
cynomolgus monkey BCMA = biological target: T1, cynomolgus monkey BCMA (cynomolgus monkey, UniProt A0A2K5UD97 1-53); assay: SPR, IgG on chip, cyBCMA analyte
T1 construct: Soluble analyte in SPR; construct not described; also called cyBCMA; Cyno BCMA

[1] = biological target: BCMA (analyte of Table 4A); assay: SPR (Bio-Rad ProteOn XPR36), IgG amine-coupled, BCMA as analyte, kinetic titration; BCMA species and temperature not stated in Table 4A
[2] = biological target: human BCMA (B-cell maturation antigen) (human) (UniProt Q02223); assay: cell-based or functional assay
[3] = biological target: BCMA on MM1S cells (human) (UniProt Q02223); assay: cell-based or functional assay
BCMA on MM1S cells (human), sequence (Q02223 whole entry): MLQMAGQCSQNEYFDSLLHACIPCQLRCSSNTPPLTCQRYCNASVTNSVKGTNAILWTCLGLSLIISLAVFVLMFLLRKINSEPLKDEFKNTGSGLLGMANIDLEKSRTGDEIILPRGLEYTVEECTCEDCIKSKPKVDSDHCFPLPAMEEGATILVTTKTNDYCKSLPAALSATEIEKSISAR

BCMA (analyte of Table 4A), sequence (Q02223 whole entry): as above
T1 sequence (A0A2K5UD97 entry or part of it): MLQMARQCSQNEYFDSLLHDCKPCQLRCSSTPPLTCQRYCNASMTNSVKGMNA
human BCMA (B-cell maturation antigen) (human), sequence (Q02223 other isoform, or with tags, fused parts or gaps): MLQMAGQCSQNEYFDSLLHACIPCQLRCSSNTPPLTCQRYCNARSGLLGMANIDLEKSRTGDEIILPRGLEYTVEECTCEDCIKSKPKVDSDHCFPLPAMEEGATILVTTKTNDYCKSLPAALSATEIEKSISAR

B1: A02_Rd4_6nM_C01 (antibody, V domains shown)
VH: EVQLLESGGGLVQPGGSLRLSCAASGFTFSSYAMNWVRQAPGKGLEWVSAITASGGSTYYADSVKGRFTISRDNSKNTLYLQMNSLRAEDTAVYYCARYWPMSLWGQGTLVTVSS
VL: EIVLTQSPGTLSLSPGERATLSCRASQSVSAYYLAWYQQKPGQAPRLLMYDASIRATGIPDRFSGSGSGTDFTLTISRLEPEDFAVYYCQQYERWPLTFGQGTKVEIK
notes: IgG
Kd (Human BCMA (human)): 30 pM
koff (Human BCMA (human)): 9.2e-05 s⁻¹
kon (Human BCMA (human)): 3.11e+06 M⁻¹ s⁻¹
Kd (cynomolgus monkey BCMA): 401 pM
koff (cynomolgus monkey BCMA): 0.000583 s⁻¹
kon (cynomolgus monkey BCMA): 1.45e+06 M⁻¹ s⁻¹
Kd [1]: 24 pM
koff [1]: 2.8e-05 s⁻¹
kon [1]: 1.2e+06 M⁻¹ s⁻¹
t1/2 [1]: 6.85 h

B2: COMBO_Rd4_0.6nM_C29 (antibody, V domains shown)
VH: EVQLLESGGGLVQPGGSLRLSCAASGFTFSSYPMSWVRQAPGKGLEWVSAIGGSGGSLPYADSVKGRFTISRDNSKNTLYLQMNSLRAEDTAVYYCARYWPMDIWGQGTLVTVSS
VL: EIVLTQSPGTLSLSPGERATLSCRASQSVSSSYLAWYQQKPGQAPRLLMYDASIRATGIPDRFSGSGSGTDFTLTISRLEPEDFAVYYCQQYQSWPLTFGQGTKVEIK
notes: IgG
Kd (Human BCMA (human)): 19 pM
koff (Human BCMA (human)): 0.000277 s⁻¹
kon (Human BCMA (human)): 1.47e+07 M⁻¹ s⁻¹
Kd (cynomolgus monkey BCMA): 84 pM
koff (cynomolgus monkey BCMA): 0.000336 s⁻¹
kon (cynomolgus monkey BCMA): 4e+06 M⁻¹ s⁻¹
Kd [1]: 21 pM
koff [1]: 0.00014 s⁻¹
kon [1]: 6.6e+06 M⁻¹ s⁻¹
t1/2 [1]: 1.38 h

B3: A02_Rd4_6nM_C16 (antibody, V domains shown)
VH: EVQLLESGGGLVQPGGSLRLSCAASGFTFSSYAMNWVRQAPGKGLEWVSAISDFGGSTYYADSVKGRFTISRDNSKNTLYLQMNSLRAEDTAVYYCARYWPMDIWGQGTLVTVSS
VL: EIVLTQSPGTLSLSPGERATLSCRASQSVSDLYLAWYQQKPGQAPRLLMYDASIRATGIPDRFSGSGSGTDFTLTISRLEPEDFAVYYCQQYQTWPLTFGQGTKVEIK
notes: IgG; also called P5AC16; P5A16
Kd (Human BCMA (human)): 90 pM
koff (Human BCMA (human)): 0.000141 s⁻¹
kon (Human BCMA (human)): 1.56e+06 M⁻¹ s⁻¹
Kd (cynomolgus monkey BCMA): 118 pM
koff (cynomolgus monkey BCMA): 0.000158 s⁻¹
kon (cynomolgus monkey BCMA): 1.34e+06 M⁻¹ s⁻¹
Kd [1]: 59 pM
koff [1]: 6.2e-05 s⁻¹
kon [1]: 1.1e+06 M⁻¹ s⁻¹
t1/2 [1]: 3.12 h

B4: PC1-V1 BCMA specific CAR (protein)
chain: EVQLLESGGGLVQPGGSLRLSCAASGFTFSSYPMSWVRQAPGKGLEWVSAIGGSGGSTYYADSVKGRFTISRDNSKNTLYLQMNSLRAEDTAVYYCARYWPMDSWGQGTLVTVSSGGGGSGGGGSGGGGSEIVLTQSPGTLSLSPGERATLSCRASQSVSSTYLAWYQQKPGQAPRLLIYDASSRAPGIPDRFSGSGSGTDFTLTISRLEPEDFAVYYCQQYSTSPLTFGQGTKVEIKGLAVSTISSFFPPGYQIYIWAPLAGTCGVLLLSLVITLYCKRGRKKLLYIFKQPFMRPVQTTQEEDGCSCRFPEEEEGGCELRVKFSRSADAPAYQQGQNQLYNELNLGRREEYDVLDKRRGRDPEMGGKPRRKNPQEGLYNELQKDKMAEAYSEIGMKGERRRGKGHDGLYQGLSTATKDTYDALHMQALPPR
% CD107a+ (in CD8+) (degranulation, CAR-T cells with MM1S cells, Donor 3) [2]: 75.6%
MFI CD107a+ (degranulation, CAR-T cells with MM1S cells, Donor 3) [2]: 2180 MFI

B5: P6AP-V1 (protein)
chain: EVQLLESGGGLVQPGGSLRLSCAASGFTFGSYAMTWVRQAPGKGLEWVSAISGSGGNTFYADSVKGRFTISRDNSKNTLYLQMNSLRAEDTAVYYCARVSPIAAPMDYWGQGTLVTVSSGGGGSGGGGSGGGGSEIVLTQSPGTLSLSPGERATLSCRASQLGSFYLAWYQQKPGQAPRLLIYGASSRATGIPDRFSGSGSGTDFTLTISRLEPEDFAVYYCQHYNYPPSFTFGQGTKVEIKGLAVSTISSFFPPGYQIYIWAPLAGTCGVLLLSLVITLYCKRGRKKLLYIFKQPFMRPVQTTQEEDGCSCRFPEEEEGGCELRVKFSRSADAPAYQQGQNQLYNELNLGRREEYDVLDKRRGRDPEMGGKPRRKNPQEGLYNELQKDKMAEAYSEIGMKGERRRGKGHDGLYQGLSTATKDTYDALHMQALPPR
% CD107a+ (in CD8+) [3]: 46.4%
MFI CD107a+ [3]: 1850
